Results: the MegaScale stability set (Tsuboyama et al. 2023)

B1: EHEE_rd2_0196 (parent)
chain: TETRTFDSEEEAKKAQKEAEKQGRTVTITRRDDRWEVRFD

Variants of: B1
Experiment: folding stability dG (cDNA display proteolysis); higher = more stable
Conditions: PBS, room temperature

Variant | folding stability dG [kcal/mol]
T1E | 2.93
T1V | 3.21
T1W | 3.67
T1R | 2.81
T1G | 2.96
T1H | 3.05
T1K | 2.76
T1I | 3.08
T1P | 3.02
T1D | 2.95
T1A | 3.08
T1L | 3.04
T1F | 3.38
T1C | 2.81
T1S | 3.13
T1Q | 2.98
T1N | 2.93
T1Y | 3.48
T1M | 3.12
E10D | 2.76
E10F | 2.69
E10C | 3.04
E10H | 2.5
E10M | 2.59

Variant | folding stability dG [kcal/mol]
E10W | 2.93
E10S | 2.18
E10T | 2.04
E10R | 2.28
E10G | 2.21
E10P | 1.88
E10I | 2.58
E10N | 2.17
E10A | 2.86
E10L | 2.51
E10V | 2.58
E10Q | 2.67
E10K | 2.46
E10Y | 2.71
D7K | 2.52
D7V | 2.51
D7S | 2.84
D7A | 2.92
D7T | 2.76
D7P | 2.58
D7W | 3.19
D7Y | 3.18
D7Q | 2.54
D7M | 2.82

Variant | folding stability dG [kcal/mol]
D7R | 2.46
D7L | 2.87
D7I | 2.46
D7G | 2.74
D7H | 2.61
D7E | 2.78
D7N | 2.75
D7F | 3.22
R4I | 3.1
R4K | 2.9
R4V | 2.99
R4Y | 3.12
R4M | 3.24
R4W | 3.49
R4S | 2.3
R4F | 3.15
R4T | 2.54
R4A | 2.65
R4L | 3.43
R4P | 1.25
R4N | 2.11
R4Q | 2.93
R4G | 1.85
R4E | 2.36

Variant | folding stability dG [kcal/mol]
R4H | 2.77
R4D | 1.6
E11M | 2.47
E11T | 1.75
E11W | 1.28
E11S | 2.18
E11A | 2.75
E11N | 1.96
E11L | 2.4
E11K | 2.21
E11Y | 1.46
E11H | 1.61
E11D | 2.95
E11P | 0.769
E11I | 1.46
E11G | 2.34
E11F | 1.47
E11R | 1.47
E11Q | 2.54
E11V | 1.43
A19D | 1.41
A19E | 2.28
T3F | 3.2
T3N | 2.33

Variant | folding stability dG [kcal/mol]
T3K | 2.48
T3H | 2.55
T3A | 2.66
T3Y | 3.11
T3P | 2.73
T3L | 3.15
T3I | 3.35
T3D | 1.93
T3M | 3.03
T3W | 3.06
T3S | 2.62
T3C | 3.22
T3G | 2.17
T3E | 2.08
T3V | 3.38
T3Q | 2.46
T3R | 2.54
F6Y | 3.19
F6I | 0.565
F6A | 0.553
F6R | 0.142
F6Q | 0.251
F6V | 1.65
F6M | 1.24

Variant | folding stability dG [kcal/mol]
F6E | 0.25
F6T | 0.546
F6L | 1.22
F6G | 0.049
F6K | 0.23
F6H | 0.637
F6W | 1.28
F6S | 0.282
F6D | 0.02
F6P | -0.092
F6N | 0.174
T5G | 1.73
T5E | 2.57
T5H | 2.71
T5K | 2.09
T5P | 1.24
T5I | 3.42
T5N | 2.3
T5A | 2.43
T5F | 3.75
T5S | 2.81
T5V | 3.37
T5R | 2.35
T5W | 4.03

Variant | folding stability dG [kcal/mol]
T5M | 3.42
T5D | 2.04
T5Q | 2.63
T5Y | 3.96
T5C | 2.5
T5L | 3.46
E9F | 3.42
E9T | 0.823
E9H | 2.28
E9I | 2.73
E9V | 2.25
E9K | 1.66
E9L | 3.33
E9Q | 2.18
E9R | 1.49
E9P | 1.92
E9A | 2.01
E9S | 1.42
E9M | 2.38
E9W | 3.38
E9Y | 3.58
E9N | 1.26
E9G | 1.03
E9D | 1.47

Variant | folding stability dG [kcal/mol]
K17F | 3.13
K17Q | 3.08
K17W | 3.18
K17I | 3.22
K17D | 2.92
K17R | 3.13
K17Y | 3.23
K17S | 3.02
K17A | 3.25
K17L | 3.25
K17G | 2.67
K17N | 2.82
K17P | 0.527
K17V | 3.15
K17T | 2.91
K17M | 3.21
K17E | 3.17
K17H | 2.98
K13Q | 2.97
K13V | 3.2
K13W | 2.95
K13C | 3.06
K13E | 2.63
K13S | 2.45

Variant | folding stability dG [kcal/mol]
K13L | 3.5
K13T | 2.75
K13R | 3.13
K13Y | 3.29
K13M | 3.18
K13I | 3.37
K13H | 2.72
K13G | 2.02
K13P | 0.105
K13F | 3.23
K13N | 2.64
K13D | 2.09
K13A | 2.54
Q16W | 2.53
Q16R | 2.63
Q16M | 3.32
Q16G | 2.99
Q16P | 0.25
Q16N | 0.943
Q16H | 2.07
Q16D | 0.725
Q16E | 2.45
Q16L | 2.89
Q16S | 2.69

Variant | folding stability dG [kcal/mol]
Q16V | 3.18
Q16I | 2.97
Q16T | 2.27
Q16C | 2.99
Q16F | 2.97
Q16K | 3.04
Q16Y | 2.83
Q16A | 3.91
E18Q | 2.65
E18Y | 2.31
E18G | 1.75
E18R | 2.46
E18W | 2.63
E18T | 2.42
E18P | 0.538
E18F | 2.32
E18M | 2.81
E18C | 3
E18L | 2.79
E18K | 2.36
E18S | 2.38
E18A | 2.79
E18I | 2.74
E18V | 2.58

Variant | folding stability dG [kcal/mol]
E18D | 2.87
E18N | 2.46
E18H | 2.55
A12P | 0.214
A12D | 0.06
A12M | 1.9
A12E | 0.203
A12W | 0.806
A12R | 0.086
A12S | 1.06
A12K | 0.241
A12G | 0.827
A12Y | 1.08
A12Q | 0.157
A12I | 0.724
A12N | 0.221
A12H | 0.139
A12L | 1.49
A12V | 1.98
A12T | 1.04
A12F | 1.05
A15W | 3.37
A15D | 1.13
A15S | 2.18

Variant | folding stability dG [kcal/mol]
A15L | 2.76
A15I | 2.69
A15N | 1.58
A15Y | 3.95
A15Q | 2.08
A15G | 1.18
A15K | 1.45
A15T | 2.04
A15M | 2.79
A15P | 0.28
A15H | 2.69
A15F | 4.24
A15V | 2.91
A15E | 2.24
A15R | 1.46
S8W | 1.13
S8D | 2.27
S8P | 0.072
S8E | 1.66
S8H | 2.12
S8F | 1.8
S8G | 1.56
S8K | 2.11
S8Q | 1.82

Variant | folding stability dG [kcal/mol]
S8N | 2.79
S8V | 1.78
S8L | 2.02
S8Y | 1.64
S8T | 3.37
S8I | 1.77
S8R | 2.12
S8A | 1.68
S8M | 1.63
E2L | 2.98
E2G | 2.79
E2Q | 3.03
E2S | 2.95
E2R | 2.89
E2D | 2.71
E2W | 3.24
E2A | 2.84
E2N | 2.94
E2F | 3.13
E2K | 2.86
E2P | 2.48
E2T | 3.11
E2V | 3.15
E2H | 3.05

Variant | folding stability dG [kcal/mol]
E2M | 2.95
E2I | 3.23
E2Y | 3.19
K14W | 3.02
K14H | 3.05
K14D | 2.9
K14R | 3.02
K14L | 3.23
K14P | 0.356
K14V | 2.94
K14E | 3.15
K14F | 3.02
K14N | 3.05
K14I | 3.07
K14Y | 2.95
K14T | 2.9
K14S | 2.89
K14C | 3.46
K14M | 3.23
K14Q | 3.23
K14G | 2.5
K14A | 3.29
